T1: human FcγRIIA-Arg131 α subunit extracellular domain-His6-GST fusion (human, UniProt P12318 34-217)
T1 construct: extracellular domain; also called FcγRIIA-R131; not shown: glutathione S transferase (GST)
T1 sequence: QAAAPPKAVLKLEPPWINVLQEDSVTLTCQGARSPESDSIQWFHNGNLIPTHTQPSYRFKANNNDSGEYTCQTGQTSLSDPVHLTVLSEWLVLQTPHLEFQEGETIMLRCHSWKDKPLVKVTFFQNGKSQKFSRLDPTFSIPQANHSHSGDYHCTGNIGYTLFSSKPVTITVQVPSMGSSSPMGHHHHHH

T2: human FcγRIIB α subunit extracellular domain-His6-GST fusion (human, UniProt P31994 43-217)
T2 construct: extracellular domain; also called CD32; not shown: glutathione S transferase (GST)
T2 sequence: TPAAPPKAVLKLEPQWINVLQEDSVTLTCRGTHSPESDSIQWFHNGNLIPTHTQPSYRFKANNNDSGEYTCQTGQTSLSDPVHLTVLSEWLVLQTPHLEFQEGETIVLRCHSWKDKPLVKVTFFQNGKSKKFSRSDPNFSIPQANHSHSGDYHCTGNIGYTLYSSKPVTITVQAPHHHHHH

T3: human FcγRIIA-R131 α subunit extracellular domain-6His-GST fusion (human, UniProt P12318 34-217)
T3 construct: also called FcγRIIA-Arg131; not shown: glutathione S-transferase (GST)
T3 sequence: T1 sequence

T4: human FcγRIIB α subunit extracellular domain-6His-GST fusion (human, UniProt P31994 43-217)
T4 construct: not shown: glutathione S-transferase (GST)
T4 sequence: T2 sequence

B1: anti-IgE E27 IgG1 Ala327Gln (antibody)
heavy: not shown
light: DIQLTQSPSSLSASVGDRVTITCRASKPVDGEGDSYLNWYQQKPGKAPKLLIYAASYLESGVPSRFSGSGSGTDFTLTISSLQPEDFATYYCQQSHEDPYTFGQGTKVEIKRTVAAPSVFIFPPSDEQLKSGTASVVCLLNNFYPREAKVQWKVDNALQSGNSQESVTEQDSKDSTYSLSSTLTLSKADYEKHKVYACEVTHQGLSSPVTKSFNRGEC
B2: anti-IgE E27 IgG1 Arg255Ala (antibody)
heavy: not shown
light: B1 light
B3: anti-IgE E27 IgG1 Ala378Gln (antibody)
heavy: not shown
light: B1 light
B4: anti-IgE E27 IgG1 Ala339Thr (antibody)
heavy: not shown
light: B1 light
B5: anti-IgE E27 IgG1 Arg292Ala (antibody)
heavy: not shown
light: B1 light
notes: also called R292(309)A
B6: anti-IgE E27 IgG1 Ala327Gly (antibody)
heavy: not shown
light: B1 light
B7: anti-IgE E27 IgG1 Asn315Ala (antibody)
heavy: not shown
light: B1 light
B8: anti-IgE E27 IgG1 Asn297Ala (antibody)
heavy: not shown
light: B1 light
notes: removes the Asn-linked glycosylation site
B9: anti-IgE E27 IgG1 Asp265Ala (antibody)
heavy: not shown
light: B1 light
notes: also called G14 D265A
B10: anti-IgE E27 IgG1 Asn286Ala (antibody)
heavy: not shown
light: B1 light
B11: anti-IgE E27 IgG1 Arg301Ala (antibody)
heavy: not shown
light: B1 light
B12: anti-IgE E27 IgG1 Ala327Ser (antibody)
heavy: not shown
light: B1 light
B13: anti-IgE E27 IgG1 Asn276Ala (antibody)
heavy: not shown
light: B1 light
B14: E27 IgG1 variant S298(317)V (antibody)
heavy: not shown
light: B1 light
notes: also called IG2 218
B15: E27 IgG1 variant Y296(313)H (antibody)
heavy: not shown
light: B1 light
B16: E27 IgG1 variant T335(354)E (antibody)
heavy: not shown
light: B1 light
notes: also called IG2 194
B17: E27 IgG1 variant Y296(313)W (antibody)
heavy: not shown
light: B1 light
notes: also called IG2 186
B18: E27 IgG1 variant T256(269)N (antibody)
heavy: not shown
light: B1 light
B19: E27 IgG1 variant S324(343)N (antibody)
heavy: not shown
light: B1 light
notes: also called IG2 213
B20: E27 IgG1 variant V303(322)L (antibody)
heavy: not shown
light: B1 light
notes: also called IG2 150
B21: E27 IgG1 variant S324(343)K (antibody)
heavy: not shown
light: B1 light
notes: also called IG2 215
B22: E27 IgG1 variant S298(317)N (antibody)
heavy: not shown
light: B1 light
notes: also called IG2 72
B23: E27 IgG1 variant T335(354)K (antibody)
heavy: not shown
light: B1 light
notes: also called IG2 195
B24: E27 IgG1 variant S324(343)E (antibody)
heavy: not shown
light: B1 light
notes: also called IG2 216
B25: E27 IgG1 variant S298(317)T (antibody)
heavy: not shown
light: B1 light
notes: also called IG2 71
B26: E27 IgG1 variant V303(322)T (antibody)
heavy: not shown
light: B1 light
B27: E27 IgG1 variant S298(317)G (antibody)
heavy: not shown
light: B1 light
notes: also called IG2 70
B28: E27 IgG1 variant T256(269)G (antibody)
heavy: not shown
light: B1 light
notes: also called IG2 176
B29: E27 IgG1 variant S324(343)Q (antibody)
heavy: not shown
light: B1 light
notes: also called IG2 214
B30: E27 IgG1 variant T335(354)Q (antibody)
heavy: not shown
light: B1 light
notes: also called IG2 171
B31: E27 IgG1 variant S298(317)L (antibody)
heavy: not shown
light: B1 light

biological target: T1, human FcγRIIA-Arg131 α subunit …; test: hexamer ELISA

Binder | ratio to native IgG1 [ratio]
B1 | 0.13
B2 | 1.3
B3 | 1.4
B4 | 1.09
B5 | 0.27
B6 | 0.92
B7 | 1.15
B8 | 0.05
B9 | 0.07
B10 | 1.24
B11 | 1.14
B12 | 0.23
B13 | 1.29

biological target: T2, human FcγRIIB α subunit extracellular …; test: hexamer ELISA

Binder | ratio to native IgG1 [ratio]
B1 | 0.14
B2 | 1.59
B3 | 1.45
B4 | 1.2
B5 | 0.17
B6 | 0.83
B7 | 1.3
B8 | 0.1
B9 | 0.13
B10 | 1.36
B11 | 1.29
B12 | 0.22
B13 | 1.34

biological target: T5, human FcγRIIIA-Phe158 α subunit extracellular domain-His6-GST fusion (human, UniProt P08637 17-208); test: hexamer ELISA
T5 construct: extracellular domain; also called FcγRIIIA-F158; CD16; not shown: glutathione S transferase (GST)
T5 sequence (P08637 other isoform, or with tags, fused parts or gaps): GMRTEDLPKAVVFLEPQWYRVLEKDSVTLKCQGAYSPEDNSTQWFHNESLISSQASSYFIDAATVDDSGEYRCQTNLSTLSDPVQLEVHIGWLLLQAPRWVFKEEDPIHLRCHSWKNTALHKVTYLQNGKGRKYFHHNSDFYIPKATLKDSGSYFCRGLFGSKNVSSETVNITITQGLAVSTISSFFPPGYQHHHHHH

Binder | ratio to native IgG1 [ratio]
B1 | 0.06
B2 | 0.98
B3 | 1.19
B4 | 1.34
B5 | 0.89
B6 | 0.36
B7 | 1.07
B8 | 0.03
B9 | 0.09
B10 | 1.05
B11 | 0.22
B12 | 0.06
B13 | 0.95

biological target: T6, human neonatal Fc receptor (FcRn), biotinylated (human, UniProt P55899 24-297; P61769 21-119, biotinylated (biotin-X-NHS)); test: FcRn ELISA, pH 6.0;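 note: Streptavidin-captured FcRn plates, IgG variants titrated 2 h at pH 6.0, peroxidase anti-human IgG read at 450 nm, variant over standard concentration at the standard curve mid-point absorbance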
T6 construct: captured on streptavidin plates
T6 sequence (P55899 24-297 limits assumed, chain 1 of 2): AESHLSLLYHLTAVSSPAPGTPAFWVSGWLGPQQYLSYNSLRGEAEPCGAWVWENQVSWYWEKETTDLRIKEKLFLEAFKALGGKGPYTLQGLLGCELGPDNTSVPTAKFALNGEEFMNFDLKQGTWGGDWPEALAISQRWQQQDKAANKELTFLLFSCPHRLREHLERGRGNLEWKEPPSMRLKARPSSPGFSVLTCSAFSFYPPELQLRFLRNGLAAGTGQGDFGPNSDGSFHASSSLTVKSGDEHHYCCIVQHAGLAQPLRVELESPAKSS
T6 sequence (P61769 21-119 limits assumed, chain 2 of 2): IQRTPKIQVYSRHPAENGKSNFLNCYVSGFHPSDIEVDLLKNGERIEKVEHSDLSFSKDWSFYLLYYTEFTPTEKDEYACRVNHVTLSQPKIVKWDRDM

Binder | ratio to native IgG1 [ratio]
B1 | 0.97
B2 | 0.59
B3 | 1.32
B5 | 0.81
B7 | 0.76
B8 | 0.8
B9 | 1.23
B10 | 1.24
B11 | 0.86
B13 | 1.15

biological target: T7, human FcγRIA α subunit extracellular domain-His6-GST fusion (human, UniProt P12314 16-292); test: FcγRI ELISA and THP-1 cells, averaged
T7 construct: extracellular domain; also called GST-FcγRIA; CD64; not shown: glutathione S transferase (GST)
T7 sequence (P12314 other isoform, or with tags, fused parts or gaps): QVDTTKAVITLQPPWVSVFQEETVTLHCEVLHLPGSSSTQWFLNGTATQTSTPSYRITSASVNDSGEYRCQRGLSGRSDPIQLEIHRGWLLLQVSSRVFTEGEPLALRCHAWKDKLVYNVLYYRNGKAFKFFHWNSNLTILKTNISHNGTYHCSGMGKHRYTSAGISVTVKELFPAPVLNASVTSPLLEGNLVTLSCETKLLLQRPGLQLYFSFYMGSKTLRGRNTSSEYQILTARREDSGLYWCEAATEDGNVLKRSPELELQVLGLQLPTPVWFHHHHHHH

Binder | ratio to native IgG1 [ratio]
B1 | 0.6
B2 | 0.99
B3 | 1.06
B4 | 1.06
B5 | 0.95
B6 | 0.96
B7 | 0.99
B9 | 0.16
B10 | 0.95
B11 | 1.06
B12 | 0.86
B13 | 1.05

biological target: T3, human FcγRIIA-R131 α subunit …; test: ELISA, IgG:IgE hexamers on receptor-GST

Binder | ratio to native IgG1
B14 | 0.11
B15 | 0.9
B16 | 1.24
B17 | 0.96
B18 | 1.03
B19 | 1.15
B20 | 0.89
B21 | 0.66
B22 | 0.05
B23 | 1.19
B24 | 0.82
B25 | 0.29
B26 | 0.64
B27 | 0.87
B28 | 1.1
B29 | 0.82
B30 | 0.86
B31 | 1.14

biological target: T4, human FcγRIIB α subunit extracellular …; test: ELISA, IgG:IgE hexamers on receptor-GST

Binder | ratio to native IgG1
B14 | 0.17
B15 | 0.81
B16 | 1.3
B17 | 0.93
B18 | 0.89
B19 | 1.09
B20 | 0.73
B21 | 0.37
B22 | 0.08
B23 | 1.14
B24 | 0.73
B25 | 0.27
B26 | 0.34
B27 | 0.63
B28 | 1.06
B29 | 0.83
B30 | 0.79
B31 | 1.42

biological target: T8, human FcγRIIIA-F158 α subunit extracellular domain-6His-GST fusion (human, UniProt P08637 17-208); test: ELISA, IgG:IgE hexamers on receptor-GST
T8 construct: also called FcγRIIIA-Phe158; not shown: glutathione S-transferase (GST)
T8 sequence (P08637 other isoform, or with tags, fused parts or gaps, form in doubt): as the sequence (P08637 other isoform, or with tags, fused parts or gaps) above

Binder | ratio to native IgG1
B14 | 0.33
B15 | 0.92
B16 | 1.19
B17 | 1.38
B18 | 1.13
B19 | 0.97
B20 | 0.76
B21 | 0.77
B22 | 0.06
B23 | 1.3
B24 | 0.81
B25 | 0.73
B26 | 0.2
B27 | 0.46
B28 | 0.96
B29 | 0.78
B30 | 0.84
B31 | 0.34
